Measured values: US20130177598A1, “DISCRETE SIZE AND SHAPE SPECIFIC PHARMACEUTICAL ORGANIC NANOPARTICLES” (The University of North Carolina at Chapel Hill, priority 2007, published 2013)

Experiment: Enzymatic activity assay of free horseradish peroxidase and PRINT particles thereof
Assay type: biochemical
Conditions: 10 ng/mL-10 mg/mL in buffer; compared with free horseradish peroxidase
Method: A standard enzymatic assay of horseradish peroxidase (reference P6782; Sigma Aldrich) was conduted on free horseradish peroxidase and PRINT particles thereof in the concentration range of 10 ng/mL-10 mg/mL in buffer. The substrates used were hydrogen peroxide and pyrogallol. […] See, FIG. 32.

horseradish peroxidase PRINT particles: PRINT particles of horseradish peroxidase, 200 nm x 200 nm cylinders
retention of biological structure and function after molding (enzyme activity): retains biological structure and function
